Assay results reported in patent US20060263802A1 (CRUCELL HOLLAND B V, published 2006).

What was measured:
Experiment in all cases: PEPSCAN ELISA, looped peptide, 10 ug/ml
[1] = molecular target: looped/cyclic peptide … (rabies virus strain ERA)
[2] = molecular target: looped/cyclic peptide … (rabies virus strain ERA); remark: listed apart in the source
[3] = molecular target: looped/cyclic peptide … (rabies virus strain ERA); remark: listed apart in the source
[4] = molecular target: looped/cyclic peptide … (rabies virus strain ERA); remark: listed apart in the source
[5] = molecular target: looped/cyclic peptide … (rabies virus strain ERA); remark: listed apart in the source
[6] = molecular target: looped/cyclic peptide … (rabies virus strain ERA); remark: listed apart in the source
[7] = molecular target: looped/cyclic peptide … (rabies virus strain ERA); remark: listed apart in the source
[8] = molecular target: looped/cyclic peptide … (rabies virus strain ERA); remark: listed apart in the source
[9] = molecular target: looped/cyclic peptide … (rabies virus strain ERA); remark: listed apart in the source
[10] = molecular target: looped/cyclic peptide … (rabies virus strain ERA); remark: listed apart in the source
[11] = molecular target: looped/cyclic peptide … (rabies virus strain ERA); remark: listed apart in the source
[12] = molecular target: looped/cyclic peptide … (rabies virus strain ERA); remark: listed apart in the source
[13] = molecular target: looped/cyclic peptide … (rabies virus strain ERA); remark: listed apart in the source
[14] = molecular target: looped/cyclic peptide … (rabies virus strain ERA); remark: listed apart in the source
[15] = molecular target: looped/cyclic peptide … (rabies virus strain ERA); remark: listed apart in the source
[16] = molecular target: looped/cyclic peptide … (rabies virus strain ERA); remark: listed apart in the source
[17] = molecular target: looped/cyclic peptide … (rabies virus strain ERA); remark: listed apart in the source
[18] = molecular target: looped/cyclic peptide … (rabies virus strain ERA); remark: listed apart in the source
[19] = molecular target: looped/cyclic peptide … (rabies virus strain ERA); remark: listed apart in the source
[20] = molecular target: looped/cyclic peptide … (rabies virus strain ERA); remark: listed apart in the source
[21] = molecular target: looped/cyclic peptide … (rabies virus strain ERA); remark: listed apart in the source
[22] = molecular target: looped/cyclic peptide … (rabies virus strain ERA); remark: listed apart in the source
[23] = molecular target: looped/cyclic peptide … (rabies virus strain ERA); remark: listed apart in the source
[24] = molecular target: looped/cyclic peptide … (rabies virus strain ERA); remark: listed apart in the source
[25] = molecular target: looped/cyclic peptide … (rabies virus strain ERA); remark: listed apart in the source
[26] = molecular target: looped/cyclic peptide … (rabies virus strain ERA); remark: listed apart in the source
[27] = molecular target: looped/cyclic peptide … (rabies virus strain ERA); remark: listed apart in the source
[28] = molecular target: looped/cyclic peptide … (rabies virus strain ERA); remark: listed apart in the source
[29] = molecular target: looped/cyclic peptide … (rabies virus strain ERA); remark: listed apart in the source
[30] = molecular target: looped/cyclic peptide … (rabies virus strain ERA); remark: listed apart in the source
[31] = molecular target: looped/cyclic peptide … (rabies virus strain ERA); remark: listed apart in the source
[32] = molecular target: looped/cyclic peptide … (rabies virus strain ERA); remark: listed apart in the source
[33] = molecular target: looped/cyclic peptide … (rabies virus strain ERA); remark: listed apart in the source
[34] = molecular target: looped/cyclic peptide … (rabies virus strain ERA); remark: listed apart in the source
[35] = molecular target: looped/cyclic peptide … (rabies virus strain ERA); remark: listed apart in the source
[36] = molecular target: looped/cyclic peptide … (rabies virus strain ERA); remark: listed apart in the source
[37] = molecular target: looped/cyclic peptide … (rabies virus strain ERA); remark: listed apart in the source
[38] = molecular target: looped/cyclic peptide … (rabies virus strain ERA); remark: listed apart in the source
[39] = molecular target: looped/cyclic peptide … (rabies virus strain ERA); remark: listed apart in the source
[40] = molecular target: looped/cyclic peptide … (rabies virus strain ERA); remark: listed apart in the source
[41] = molecular target: looped/cyclic peptide … (rabies virus strain ERA); remark: listed apart in the source
[42] = molecular target: looped/cyclic peptide … (rabies virus strain ERA); remark: listed apart in the source
[43] = molecular target: looped/cyclic peptide … (rabies virus strain ERA); remark: listed apart in the source
[44] = molecular target: looped/cyclic peptide … (rabies virus strain ERA); remark: listed apart in the source
[45] = molecular target: looped/cyclic peptide … (rabies virus strain ERA); remark: listed apart in the source
[46] = molecular target: looped/cyclic peptide … (rabies virus strain ERA); remark: listed apart in the source
[47] = molecular target: looped/cyclic peptide … (rabies virus strain ERA); remark: listed apart in the source
[48] = molecular target: looped/cyclic peptide … (rabies virus strain ERA); remark: listed apart in the source
[49] = molecular target: looped/cyclic peptide … (rabies virus strain ERA); remark: listed apart in the source
[50] = molecular target: looped/cyclic peptide … (rabies virus strain ERA); remark: listed apart in the source
[51] = molecular target: looped/cyclic peptide … (rabies virus strain ERA); remark: listed apart in the source
[52] = molecular target: looped/cyclic peptide … (rabies virus strain ERA); remark: listed apart in the source
[53] = molecular target: looped/cyclic peptide … (rabies virus strain ERA); remark: listed apart in the source
[54] = molecular target: looped/cyclic peptide … (rabies virus strain ERA); remark: listed apart in the source
[55] = molecular target: looped/cyclic peptide … (rabies virus strain ERA); remark: listed apart in the source
[56] = molecular target: looped/cyclic peptide … (rabies virus strain ERA); remark: listed apart in the source
[57] = molecular target: looped/cyclic peptide … (rabies virus strain ERA); remark: listed apart in the source
[58] = molecular target: looped/cyclic peptide … (rabies virus strain ERA); remark: listed apart in the source
[59] = molecular target: looped/cyclic peptide … (rabies virus strain ERA); remark: listed apart in the source
[60] = molecular target: looped/cyclic peptide … (rabies virus strain ERA); remark: listed apart in the source
[61] = molecular target: looped/cyclic peptide … (rabies virus strain ERA); remark: listed apart in the source

B1: human monoclonal antibody CRJB (antibody, V domains shown)
VH: QITLKETGPTLVKPTQTLTLTCTFSGFSLSTSGVGVGWIRQPPGKALEWVTLIYWDDDKRYSPSLENRVTIRKDTSKNQVALTMTNMDPLDTGTYYCAHRQHISSFPWFDSWGQGTLVTVSS
VL: SYVLTQPPSVSVAPGKTARINCGGNNIEYRSVHWYQQKSGQAPVAVIYDNSDRPSGIPERFSGSKSGNTATLTISRVEAGDEADYYCQVWDISSDVVFGGGTKLTVLG
In the case of B1, the OD [1] is reported as 99 OD, the OD [2] is reported as 87 OD and the OD [3] is reported as 91 OD. It also gave an OD [4] of 112 OD, an OD [5] of 104 OD and an OD [6] of 105 OD. For the same binder, the OD [7] was 104 OD, the OD [8] was 103 OD and the OD [9] was 64 OD. It also gave an OD [10] of 110 OD, an OD [11] of 102 OD and an OD [12] of 100 OD. It also gave an OD [13] of 101 OD, an OD [14] of 99 OD and an OD [15] of 134 OD. It also gave an OD [16] of 92 OD, an OD [17] of 96 OD and an OD [18] of 85 OD. For the same binder, the OD [19] was 93 OD, the OD [20] was 85 OD and the OD [21] was 93 OD. It also gave an OD [22] of 96 OD, an OD [23] of 88 OD and an OD [24] of 85 OD. For the same binder, the OD [25] was 93 OD, the OD [26] was 83 OD and the OD [27] was 92 OD. It also gave an OD [28] of 94 OD, an OD [29] of 100 OD and an OD [30] of 105 OD. For the same binder, the OD [31] was 108 OD, the OD [32] was 104 OD and the OD [33] was 103 OD. It also gave an OD [34] of 99 OD, an OD [35] of 85 OD and an OD [36] of 85 OD. It also gave an OD [37] of 83 OD, an OD [38] of 82 OD and an OD [39] of 98 OD. It also gave an OD [40] of 90 OD, an OD [41] of 79 OD and an OD [42] of 85 OD. For the same binder, the OD [43] was 76 OD, the OD [44] was 85 OD and the OD [45] was 129 OD. The OD [46] was 93 OD, the OD [47] was 92 OD and the OD [48] was 97 OD. It also gave an OD [49] of 104 OD, an OD [50] of 100 OD and an OD [51] of 88 OD. It also gave an OD [52] of 71 OD, an OD [53] of 76 OD and an OD [54] of 92 OD. For the same binder, the OD [55] was 80 OD, the OD [56] was 106 OD and the OD [57] was 92 OD. It also gave an OD [58] of 107 OD, an OD [59] of 90 OD and an OD [60] of 116 OD. For the same binder, the OD [61] was 79 OD.
